US20120208744A1, “ANTI-MICROBIAL AGENTS AND COMPOSITIONS AND METHODS OF PRODUCTION AND USE THEREOF” (The Penn State Research Foundation, priority 2011, published 2012)
Numbering of substitutions follows the chain as printed. Names and notes keep the numbering of the source.

B1: ExbD I102C: ExbD cysteine substitution I102C (pKP1010) (protein)
chain: MAMHLNENLDDNGEMHDINVTPFIDVMLVLLIIFMVAAPLAIVDVKVNLPASTSTPQPRPEKPVYLSVKADNSMFIGNDPVTDETMITALNALTEGKKDITCFFRADKTVDYETLMKVMDTLHQAGYLKIGLVGEETAKAK
B2: ExbD Y112C: ExbD cysteine substitution Y112C (pKP1020) (protein)
chain: B1 chain with C102I, Y112C
B3: ExbD M116C: ExbD cysteine substitution M116C (pKP1024) (protein)
chain: B1 chain with C102I, M116C
B4: ExbD G96C: ExbD cysteine substitution G96C (pKP1004) (protein)
chain: B1 chain with G96C, C102I
B5: ExbD K108C: ExbD cysteine substitution K108C (pKP1016) (protein)
chain: B1 chain with C102I, K108C
B6: Colicin Ia: TonB-dependent colicin; standard colicin preparation used in spot titers (protein, UniProt P06716 1-626, looked up)
Colicin-Ia: MSDPVRITNPGAESLGYDSDGHEIMAVDIYVNPPRVDVFHGTPPAWSSFGNKTIWGGNEWVDDSPTRSDIEKRDKEITAYKNTLSAQQKENENKRTEAGKRLSAAIAAREKDENTLKTLRAGNADAADITRQEFRLLQAELREYGFRTEIAGYDALRLHTESRMLFADADSLRISPREARSLIEQAEKRQKDAQNADKKAADMLAEYERRKGILDTRLSELEKNGGAALAVLDAQQARLLGQQTRNDRAISEARNKLSSVTESLNTARNALTRAEQQLTQQKNTPDGKTIVSPEKFPGRSSTNHSIVVSGDPRFAGTIKITTSAVIDNRANLNYLLSHSGLDYKRNILNDRNPVVTEDVEGDKKIYNAEVAEWDKLRQRLLDARNKITSAESAVNSARNNLSARTNEQKHANDALNALLKEKENIRNQLSGINQKIAEEKRKQDELKATKDAINFTTEFLKSVSEKYGAKAEQLAREMAGQAKGKKIRNVEEALKTYEKYRADINKKINAKDRAAIAAALESVKLSDISSNLNRFSRGLGYAGKFTSLADWITEFGKAVRTENWRPLFVKTETIIAGNAATALVALVFSILTGSALGIIGYGLLMAVTGALIDESLVEKANKFWGI
B7: Colicin B: TonB-dependent colicin; toxin that enters and kills E. coli via the TonB system; standard colicin preparation (protein, UniProt P05819 2-511, looked up)
Colicin-B: SDNEGSVPTEGIDYGDTMVVWPSTGRIPGGDVKPGGSSGLAPSMPPGWGDYSPQGIALVQSVLFPGIIRRIILDKELEEGDWSGWSVSVHSPWGNEKVSAARTVLENGLRGGLPEPSRPAAVSFARLEPASGNEQKIIRLMVTQQLEQVTDIPASQLPAAGNNVPVKYRLTDLMQNGTQYMAIIGGIPMTVPVVDAVPVPDRSRPGTNIKDVYSAPVSPNLPDLVLSVGQMNTPVRSNPEIQEDGVISETGNYVEAGYTMSSNNHDVIVRFPEGSGVSPLYISAVEILDSNSLSQRQEAENNAKDDFRVKKEQENDEKTVLTKTSEVIISVGDKVGEYLGDKYKALSREIAENINNFQGKTIRSYDDAMSSINKLMANPSLKINATDKEAIVNAWKAFNAEDMGNKFAALGKTFKAADYAIKANNIREKSIEGYQTGNWGPLMLEVESWVISGMASAVALSLFSLTLGSALIAFGLSATVVGFVGVVIAGAIGAFIDDKFVDELNHKIIK
B8: Colicin M: TonB-dependent colicin; standard colicin preparation used in spot titers (protein, UniProt P05820 1-271, looked up)
Colicin-M: METLTVHAPSPSTNLPSYGNGAFSLSAPHVPGAGPLLVQVVYSFFQSPNMCLQALTQLEDYIKKHGASNPLTLQIISTNIGYFCNADRNLVLHPGISVYDAYHFAKPAPSQYDYRSMNMKQMSGNVTTPIVALAHYLWGNGAERSVNIANIGLKISPMKINQIKDIIKSGVVGTFPVSTKFTHATGDYNVITGAYLGNITLKTEGTLTISANGSWTYNGVVRSYDDKYDFNASTHRGIIGESLTRLGAMFSGKEYQILLPGEIHIKESGKR

Legend:
[1] = test system: ferrichrome-mediated iron transport; assay: [55Fe]-ferrichrome uptake, ExbD cys substitutions, with or without CuoP treatment; format: cell-based, Escherichia coli; conditions: for activity: initial rate of ferrichrome-mediated iron transport relative to wild-type plasmid-encoded ExbD: non-reducing conditions, substitution expressed to native ExbD levels, strain RA1045
Protocol: Since CuoP treatment catalyzed almost 100% dimer formation for some of the cys substitutions, attempts were made to determine activity of the dimeric form. […] The amount of CuoP was reduced 10-fold to 0.03 mM and cells had to be suspended in fully supplemented M9 medium as described in Experimental Procedures.
Activity assays. Initial rates of [^55Fe]-ferrichrome uptake were determined. For assays where cultures were treated with copper-(1,10-phenanthroline)3, harvested cells were pelleted, resuspended in 1×M9 supplemented as described above (no sodium propionate added), and treated with an equal volume 0.06 mM CuoP ([final] 0.03 mM) or 0.5 mM sodium phosphate buffer, pH 7.4 (buffer only) for 5 min, at 37° C. with aeration. Cells were pelleted, and the standard iron transport protocol was followed starting with resuspension in the assay medium.
In all assays the CuoP solution was removed and assays carried out in identical media, but the medium present during the 5 min CuoP treatment was important and differentially affected activity of a wild-type strain.

E. coli = assay: Spot titer assay (sensitivity to TonB-dependent colicins and bacteriophage); format: cell-based, Escherichia coli; conditions: three platings
Protocol: Activity assays: Spot titer assays were performed. Initial rates of [^55Fe]-ferrichrome uptake were determined.
Spot titers, which are capable of detecting very low levels of TonB activity, measure sensitivity to colicins and bacteriophage that enter and subsequently kill E. coli via the TonB system. […] Consistent with their insensitivity to phage and colicins, the other 13 deletion variants supported no iron transport.

[2] = CuoP-treated (0.03 mM, 5 min, supplemented M9)
[3] = overexpressed ExbD cys substitution
[4] = strain RA1017 (ΔExbBD, ΔTolQRA)
[5] = strain RA1017/pKP724 (ExbB, ExbDΔ132-141)
[6] = strain RA1017/pKP752 (ExbB, ExbDΔ102-111)
[7] = strain RA1017/pKP753 (ExbB, ExbDΔ92-101)
[8] = strain RA1017/pKP754 (ExbB, ExbDΔ82-91)
[9] = strain RA1017/pKP755 (ExbB, ExbDΔ72-81)
[10] = strain RA1017/pKP756 (ExbB, ExbDΔ62-71)
[11] = strain RA1017/pKP757 (ExbB, ExbDΔ52-61)
[12] = strain RA1017/pKP758 (ExbB, ExbDΔ32-41)
[13] = strain RA1017/pKP759 (ExbB, ExbDΔ22-31)
[14] = strain RA1017/pKP760 (ExbB, ExbDΔ12-21)
[15] = strain RA1017/pKP762 (ExbB, ExbDΔ42-51)
[16] = strain RA1017/pKP763 (ExbB, ExbDΔ112-121)
[17] = strain RA1017/pKP764 (ExbB, ExbDΔ122-131)

Molecule	activity: initial rate of ferrichrome-mediated iron transport relative to wild-type plasmid-encoded ExbD [1] [%]	activity: iron transport relative to wild-type ExbD [1, 2]	activity: iron transport relative to wild-type ExbD ([1]; buffer only treated samples)	activity: iron transport relative to wild-type ExbD [1, 3] [%]	Susceptibility: highest five-fold dilution of a standard colicin preparation that provided an evident zone of clearing on a cell lawn (E. coli; [4])	Susceptibility: highest five-fold dilution of a standard colicin preparation that provided an evident zone of clearing on a cell lawn (E. coli; [5])	Susceptibility: highest five-fold dilution of a standard colicin preparation that provided an evident zone of clearing on a cell lawn (E. coli; [6])	Susceptibility: highest five-fold dilution of a standard colicin preparation that provided an evident zone of clearing on a cell lawn (E. coli; [7])	Susceptibility: highest five-fold dilution of a standard colicin preparation that provided an evident zone of clearing on a cell lawn (E. coli; [8])	Susceptibility: highest five-fold dilution of a standard colicin preparation that provided an evident zone of clearing on a cell lawn (E. coli; [9])	Susceptibility: highest five-fold dilution of a standard colicin preparation that provided an evident zone of clearing on a cell lawn (E. coli; [10])	Susceptibility: highest five-fold dilution of a standard colicin preparation that provided an evident zone of clearing on a cell lawn (E. coli; [11])	Susceptibility: highest five-fold dilution of a standard colicin preparation that provided an evident zone of clearing on a cell lawn (E. coli; [12])	Susceptibility: highest five-fold dilution of a standard colicin preparation that provided an evident zone of clearing on a cell lawn (E. coli; [13])	Susceptibility: highest five-fold dilution of a standard colicin preparation that provided an evident zone of clearing on a cell lawn (E. coli; [14])	Susceptibility: highest five-fold dilution of a standard colicin preparation that provided an evident zone of clearing on a cell lawn (E. coli; [15])	Susceptibility: highest five-fold dilution of a standard colicin preparation that provided an evident zone of clearing on a cell lawn (E. coli; [16])	Susceptibility: highest five-fold dilution of a standard colicin preparation that provided an evident zone of clearing on a cell lawn (E. coli; [17])
B1	80																	
B2		5%	about 90%	90														
B3		20%	about 90%															
B4	85																	
B5	~110	at least 70%		110														
B6					T, T, T	T, T, T	T, T, T	T, T, T	T, T, T	T, T, T	T, T, T	T, T, T	T, T, T	T, T, T	T, T, T	T, T, T	T, T, T	T, T, T
B7					T, T, T	T, T, T	T, T, T	T, T, T	T, T, T	T, T, T	T, T, T	T, T, T	T, T, T	T, T, T	T, T, T	T, T, T	T, T, T	T, T, T
B8					T, T, T	T, T, T	T, T, T	T, T, T	T, T, T	T, T, T	T, T, T	T, T, T	T, T, T	T, T, T	T, T, T	T, T, T	T, T, T	T, T, T
